Reference: article PMC9347011, “Transcriptional and post-transcriptional regulation of ethylene biosynthesis by exogenous acetylsalicylic acid in kiwifruit”

Assays:
Settings in all cases: protein: recombinant; tags: GST (pGEX-4T-1); label: 3'-biotin
AdERF105L = AdERF105L (kiwifruit, UniProt A0A2R6RWH8 1-269); assay: EMSA; reduced by 20- and 500-fold unlabeled probe; LightShift Chemiluminescent EMSA kit (Thermo); 3'-biotin dsDNA probes, 20- and 500-fold unlabeled competitor; buffer, salt, pH and temperature not stated
AdWRKY29 [1] = target: T1, AdWRKY29 (kiwifruit, UniProt A0A2R6PHX2 1-296); assay: EMSA; LightShift Chemiluminescent EMSA kit (Thermo); 3'-biotin dsDNA probes, 20- and 500-fold unlabeled competitor; buffer, salt, pH and temperature not stated
T1 sequence: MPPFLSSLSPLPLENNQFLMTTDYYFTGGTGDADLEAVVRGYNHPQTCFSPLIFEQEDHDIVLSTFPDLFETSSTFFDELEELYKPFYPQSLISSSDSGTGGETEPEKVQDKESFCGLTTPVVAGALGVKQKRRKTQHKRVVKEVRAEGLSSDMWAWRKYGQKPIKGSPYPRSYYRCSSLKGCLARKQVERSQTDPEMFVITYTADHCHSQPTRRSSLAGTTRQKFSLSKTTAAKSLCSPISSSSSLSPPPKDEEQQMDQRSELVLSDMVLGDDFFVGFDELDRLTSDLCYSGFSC

AdWRKY29 [2] = target: T1, AdWRKY29; assay: EMSA; reduced by 20- and 500-fold unlabeled probe; LightShift Chemiluminescent EMSA kit (Thermo); 3'-biotin dsDNA probes, 20- and 500-fold unlabeled competitor; buffer, salt, pH and temperature not stated

Sequence of AdERF105L (A0A2R6RWH8 entry or part of it): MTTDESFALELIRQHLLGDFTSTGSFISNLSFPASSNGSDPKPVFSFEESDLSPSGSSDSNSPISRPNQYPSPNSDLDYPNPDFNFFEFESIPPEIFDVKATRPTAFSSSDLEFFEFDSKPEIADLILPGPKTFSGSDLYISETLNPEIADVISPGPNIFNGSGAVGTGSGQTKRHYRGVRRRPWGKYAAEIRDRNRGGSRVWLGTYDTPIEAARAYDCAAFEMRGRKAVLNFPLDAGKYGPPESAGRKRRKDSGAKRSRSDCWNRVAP

B1: AdACS1 promoter DRE probe (dsDNA)
DNA 1: CTGCGATTTGCCGTCGGTACGACTCTCATC
DNA 2: GATGAGAGTCGTACCGACGGCAAATCGCAG
AdERF105L
  binding result: binds

B2: AdACS2 promoter DRE probe (dsDNA)
DNA 1: CTAAGATTTGCTGTCGGTATGGCTCTCAT
DNA 2: ATGAGAGCCATACCGACAGCAAATCTTAG
AdERF105L
  binding result: binds

B3: AdACO5 promoter W-box mutant probe (dsDNA)
DNA 1: AACAAAGTCCAGAAAAAAACTTTAATTTCC
DNA 2: GGAAATTAAAGTTTTTTTCTGGACTTTGTT
AdWRKY29 [1]
  binding result: no binding

B4: AdACO5 promoter W-box probe (dsDNA)
DNA 1: AACAAAGTCCAGTTGACCACTTTAATTTCC
DNA 2: GGAAATTAAAGTGGTCAACTGGACTTTGTT
AdWRKY29 [2]
  binding result: binds
